Assay results taken from the RNAGym collection of RNA variant scans (doi:10.1093/nar/gkz1192).

B1: CPEB3 Ribozyme (parent)
chain: UAACAGGGGGCCACAGCAGAAGCGUUCACGUCGCAGCCCCUGUCAGAUUCUGGUGAAUCUGCGAAUUCUGCUGUAUAUCUC

Variants of: B1
Assay: self-cleavage, relative activity (ratio to wild type); higher = more cleavage; in vitro, sequencing
Summary of the method: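 Barcoded CPEB3 ribozyme mutants, produced by rounds of error-prone PCR, self-cleaved while being transcribed with T7 RNA polymerase for 5 hours at 37°C and during a subsequent 15 min DNase I step before EDTA was added. Sequencing of template-switched cDNA on Illumina gave cleaved and total reads, and DNA sequencing assigned barcodes to variants. Each variant's relative activity is its cleaved/total read fraction divided by the unmutated ribozyme's fraction, averaged across three batches. A variant needed a minimum of 5 reads.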
Variant UAACAGGGGGCCGCAGAAGAAGCGUUCACGUCGCAGCCCCUGUCAGAUUCUGGUGAAUCUGCGAAUUCUGCUGUAUAUCUC [A13G C17A] has a self-cleavage of 0.38. UAACAGGGGGCCGCAGGAGAAGCGUUCACGUCGCAGCCCCUGUCAGAUUCUGGUGAAUCUGCGAAUUCUGCUGUAUAUCUC [A13G C17G] gave a self-cleavage of 0.13. UAACAGGGGGCCGCAGUAGAAGCGUUCACGUCGCAGCCCCUGUCAGAUUCUGGUGAAUCUGCGAAUUCUGCUGUAUAUCUC [A13G C17U] gave a self-cleavage of 0.51. Work on UAACAGGGGGCCGCAGCAGAAGGGUUCACGUCGCAGCCCCUGUCAGAUUCUGGUGAAUCUGCGAAUUCUGCUGUAUAUCUC [A13G C23G] yielded a self-cleavage of 0.46. Work on UAACAGGGGGCCGCAGCAGAAGUGUUCACGUCGCAGCCCCUGUCAGAUUCUGGUGAAUCUGCGAAUUCUGCUGUAUAUCUC [A13G C23U] yielded a self-cleavage of 0.36. Work on UAACAGGGGGCCGCAGCAGAAGCGUUUACGUCGCAGCCCCUGUCAGAUUCUGGUGAAUCUGCGAAUUCUGCUGUAUAUCUC [A13G C27U] yielded a self-cleavage of 0.26. Variant UAACAGGGGGCCGCAGCAGAAGCGUUCAAGUCGCAGCCCCUGUCAGAUUCUGGUGAAUCUGCGAAUUCUGCUGUAUAUCUC [A13G C29A] has a self-cleavage of 0.3. UAACAGGGGGCCGCAGCAGAAGCGUUCAGGUCGCAGCCCCUGUCAGAUUCUGGUGAAUCUGCGAAUUCUGCUGUAUAUCUC [A13G C29G] showed a self-cleavage of 0.11. For UAACAGGGGGCCGCAGCAGAAGCGUUCAUGUCGCAGCCCCUGUCAGAUUCUGGUGAAUCUGCGAAUUCUGCUGUAUAUCUC [A13G C29U], the self-cleavage was 0.33. Work on UAACAGGGGGCCGCAGCAGAAGCGUUCACGUAGCAGCCCCUGUCAGAUUCUGGUGAAUCUGCGAAUUCUGCUGUAUAUCUC [A13G C32A] yielded a self-cleavage of 0.16. In the case of UAACAGGGGGCCGCAGCAGAAGCGUUCACGUUGCAGCCCCUGUCAGAUUCUGGUGAAUCUGCGAAUUCUGCUGUAUAUCUC [A13G C32U], the self-cleavage is reported as 0.18. UAACAGGGGGCCGCAGCAGAAGCGUUCACGUCGGAGCCCCUGUCAGAUUCUGGUGAAUCUGCGAAUUCUGCUGUAUAUCUC [A13G C34G] gave a self-cleavage of 0.17. Work on UAACAGGGGGCCGCAGCAGAAGCGUUCACGUCGUAGCCCCUGUCAGAUUCUGGUGAAUCUGCGAAUUCUGCUGUAUAUCUC [A13G C34U] yielded a self-cleavage of 0.32. UAACAGGGGGCCGCAGCAGAAGCGUUCACGUCGCAGACCCUGUCAGAUUCUGGUGAAUCUGCGAAUUCUGCUGUAUAUCUC [A13G C37A] showed a self-cleavage of 0.18. In the case of UAACAGGGGGCCGCAGCAGAAGCGUUCACGUCGCAGUCCCUGUCAGAUUCUGGUGAAUCUGCGAAUUCUGCUGUAUAUCUC [A13G C37U], the self-cleavage is reported as 0.53. UAACAGGGGGCCGCAGCAGAAGCGUUCACGUCGCAGCACCUGUCAGAUUCUGGUGAAUCUGCGAAUUCUGCUGUAUAUCUC [A13G C38A] showed a self-cleavage of 0.13. In the case of UAACAGGGGGCCGCAGCAGAAGCGUUCACGUCGCAGCGCCUGUCAGAUUCUGGUGAAUCUGCGAAUUCUGCUGUAUAUCUC [A13G C38G], the self-cleavage is reported as 0.28. With UAACAGGGGGCCGCAGCAGAAGCGUUCACGUCGCAGCUCCUGUCAGAUUCUGGUGAAUCUGCGAAUUCUGCUGUAUAUCUC [A13G C38U] the self-cleavage was 0.83. Work on UAACAGGGGGCCGCAGCAGAAGCGUUCACGUCGCAGCCACUGUCAGAUUCUGGUGAAUCUGCGAAUUCUGCUGUAUAUCUC [A13G C39A] yielded a self-cleavage of 0.28. With UAACAGGGGGCCGCAGCAGAAGCGUUCACGUCGCAGCCGCUGUCAGAUUCUGGUGAAUCUGCGAAUUCUGCUGUAUAUCUC [A13G C39G] the self-cleavage was 0.27. UAACAGGGGGCCGCAGCAGAAGCGUUCACGUCGCAGCCUCUGUCAGAUUCUGGUGAAUCUGCGAAUUCUGCUGUAUAUCUC [A13G C39U] gave a self-cleavage of 1. With UAACAGGGGGCCGCAGCAGAAGCGUUCACGUCGCAGCCCAUGUCAGAUUCUGGUGAAUCUGCGAAUUCUGCUGUAUAUCUC [A13G C40A] the self-cleavage was 0.21. UAACAGGGGGCCGCAGCAGAAGCGUUCACGUCGCAGCCCGUGUCAGAUUCUGGUGAAUCUGCGAAUUCUGCUGUAUAUCUC [A13G C40G] gave a self-cleavage of 0.23. In the case of UAACAGGGGGCCGCAGCAGAAGCGUUCACGUCGCAGCCCUUGUCAGAUUCUGGUGAAUCUGCGAAUUCUGCUGUAUAUCUC [A13G C40U], the self-cleavage is reported as 0.76. Work on UAACAGGGGGCCGCAGCAGAAGCGUUCACGUCGCAGCCCCUGUAAGAUUCUGGUGAAUCUGCGAAUUCUGCUGUAUAUCUC [A13G C44A] yielded a self-cleavage of 0.24. With UAACAGGGGGCCGCAGCAGAAGCGUUCACGUCGCAGCCCCUGUUAGAUUCUGGUGAAUCUGCGAAUUCUGCUGUAUAUCUC [A13G C44U] the self-cleavage was 0.32. UAACAGGGGGCCGCAGCAGAAGCGUUCACGUCGCAGCCCCUGUCAGAUUAUGGUGAAUCUGCGAAUUCUGCUGUAUAUCUC [A13G C50A] gave a self-cleavage of 0.76. UAACAGGGGGCCGCAGCAGAAGCGUUCACGUCGCAGCCCCUGUCAGAUUGUGGUGAAUCUGCGAAUUCUGCUGUAUAUCUC [A13G C50G] showed a self-cleavage of 0.81. With UAACAGGGGGCCGCAGCAGAAGCGUUCACGUCGCAGCCCCUGUCAGAUUUUGGUGAAUCUGCGAAUUCUGCUGUAUAUCUC [A13G C50U] the self-cleavage was 0.91. UAACAGGGGGCCGCAGCAGAAGCGUUCACGUCGCAGCCCCUGUCAGAUUCUGGUGAAUGUGCGAAUUCUGCUGUAUAUCUC [A13G C59G] showed a self-cleavage of 0.24. Variant UAACAGGGGGCCGCAGCAGAAGCGUUCACGUCGCAGCCCCUGUCAGAUUCUGGUGAAUUUGCGAAUUCUGCUGUAUAUCUC [A13G C59U] has a self-cleavage of 0.8. Work on UAACAGGGGGCCGCAGCAGAAGCGUUCACGUCGCAGCCCCUGUCAGAUUCUGGUGAAUCUGAGAAUUCUGCUGUAUAUCUC [A13G C62A] yielded a self-cleavage of 0.18. Variant UAACAGGGGGCCGCAGCAGAAGCGUUCACGUCGCAGCCCCUGUCAGAUUCUGGUGAAUCUGUGAAUUCUGCUGUAUAUCUC [A13G C62U] has a self-cleavage of 0.23. With UAACAGGGGGCCGCAGCAGAAGCGUUCACGUCGCAGCCCCUGUCAGAUUCUGGUGAAUCUGCGAAUUUUGCUGUAUAUCUC [A13G C68U] the self-cleavage was 0.66.
